These results are taken from paper PMC9588774 (Cell Death & Disease, 2022).

Data set [1] deals with the molecule itself. Put plainly: SEC; supernatants of sCD95-secreting HEK/293T cells on Superdex 200 Prep Grade (XK 16/70) in PBS, 1 mL/min, 1 mL fractions; CD95 in each fraction dosed by ELISA; native molecular markers.
Data set [2] addresses CD95L (FasL, Peprotech) (UniProt P48023). Put plainly: SPR; Biacore T200, 25 °C; CM5 chip coated with 140 RU of FasL (Peprotech); sCD95 or sCD95-Δ58 injected in triplicate at 25 µl/min in 10 mM Na2HPO4, 150 mM NaCl, 3 mM EDTA, 0.05% Tween-20, pH 7.4; Langmuir 1:1 fit, KD = kd/ka. A general note: Surface plasmon resonance follows binding to a sensor surface in real time, without labels.

Data set [3] has as its target T1, CD95L (FasL, Peprotech) (UniProt P48023 130-281).
T1 chain: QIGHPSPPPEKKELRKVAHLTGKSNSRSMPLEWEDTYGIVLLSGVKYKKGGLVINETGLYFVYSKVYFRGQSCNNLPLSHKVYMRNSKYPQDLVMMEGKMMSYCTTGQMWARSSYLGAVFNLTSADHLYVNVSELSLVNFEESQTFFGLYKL
Put plainly: SPR.

Data set [4] concerns the target soluble full-length extracellular domain of CD95 (sCD95). The data set is described as follows: SEC; supernatants of sCD95-secreting HEK/293T cells on Superdex 200 Prep Grade (XK 16/70) in PBS, 1 mL/min, 1 mL fractions; CD95 in each fraction dosed by ELISA; native molecular markers. In general terms: Size exclusion chromatography separates by hydrodynamic size, large species first.

B1: soluble extracellular domain of CD95 with K33G (sCD95-K33G) (domain or fragment, UniProt P25445 17-173, looked up)
chain: RLSSKSVNAQVTDINSGGLELRKTVTTVETQNLEGLHHDGQFCHKPCPPGERKARDCTVNGDEPDCVPCQEGKEYTDKAHFSSKCRRCRLCDEGHGLEVEINCTRTQNTKCRCKPNFFCNSTVCEHCDPCTKCEHGIIKECTLTSNTKCKEEGSRSN
notes: CD95 (Fas), a.a; 17-173 of the 335-residue precursor, AAG codon (K) replaced by GGG (G); pcDNA3.1(+); also called soluble K33G CD95 mutant; source: HEK/293T, transfected (calcium/phosphate), secreted into serum-deprived Opti-MEM; supernatant ultracentrifuged
Turning to B1, the “stoichiometry N” value in data set [1] stood at 3.

B2: soluble Δ58-truncated extracellular domain of CD95 (sCD95-Δ58) (domain or fragment)
chain: CHKPCPPGERKARDCTVNGDEPDCVPCQEGKEYTDKAHFSSKCRRCRLCDEGHGLEVEINCTRTQNTKCRCKPNFFCNSTVCEHCDPCTKCEHGIIKECTLTSNTKCKEEGSRSNL
B2 had a Kd in data set [2] of 2.5 nM. The koff in data set [3] is 0.0011 s⁻¹.

B3: soluble full-length extracellular domain of CD95 (sCD95) (domain or fragment)
chain: RLSSKSVNAQVTDINSKGLELRKTVTTVETQNLEGLHHDGQFCHKPCPPGERKARDCTVNGDEPDCVPCQEGKEYTDKAHFSSKCRRCRLCDEGHGLEVEINCTRTQNTKCRCKPNFFCNSTVCEHCDPCTKCEHGIIKECTLTSNTKCKEEGSRSNL
modifications: N-glycosylated
In data set [2], B3 displayed a Kd of 2 nM. In data set [4], this molecule had a percent of homotrimer of 27%, a percent of monomer of 20%, a percent of the protein in the dimer fractions of 44% and a stoichiometry N of 2. The molecule also registered a koff in data set [3] of 0.0011 s⁻¹.

B4: soluble Δ36-truncated extracellular domain of CD95 (sCD95-Δ36) (domain or fragment, UniProt P25445 37-173, looked up)
chain: LRKTVTTVETQNLEGLHHDGQFCHKPCPPGERKARDCTVNGDEPDCVPCQEGKEYTDKAHFSSKCRRCRLCDEGHGLEVEINCTRTQNTKCRCKPNFFCNSTVCEHCDPCTKCEHGIIKECTLTSNTKCKEEGSRSN
notes: CD95 (Fas), a.a; 37-173 of the 335-residue precursor; pcDNA3.1(+); also called Δ36-CD95; MMP7-cleaved form; source: HEK/293T, transfected (calcium/phosphate), secreted into serum-deprived Opti-MEM; supernatant ultracentrifuged
Regarding B4, in data set [1], the “stoichiometry N” value is 2.

By stoichiometry N is commonly meant the number of molecules, sites or subunits per partner or assembly. What is called Kd is the free concentration of one partner at which half of the binding sites on the other are occupied at equilibrium, for simple one-to-one binding. A low value points to higher affinity. As usually defined, the koff is a measure of how fast the partners let go of each other. Low values mean a long-lived complex, high ones a short-lived complex.
